Measurements from patent US7741096B2, “Crystal structure of hepatocyte growth factor activator complexed with Kunitz domain inhibitor” (Genentech, Inc., priority 2004, dated 2010).

What was measured:
uPA = biological target: T1, uPA (Homo sapiens, UniProt P00749); assay: Chromogenic substrate enzyme inhibition assay, uPA; format: biochemical; details: substrate S2444, read-out: KD1 IC50
T1 construct: purchased Chemicon
Description: (§1) The following synthetic substrates were used to measure enzyme activities: Spectrozyme® fvIIa (American Diagnostica, Stamford, Conn.) for HGFA and ChromozymtPA (Roche Molecular Biochemicals, Indianapolis, Ind.) for tissue factor/FVIIa. The following substrates were from Diapharma, Westchester, Ohio: S2222 for factor Xa, S2302 for plasma kallikrein, S2366 for activated protein C, thrombin, hepsin and plasmin, S2444 for uPA, S2288 for factor XIa, FXIIa and tPA, S2765 for matriptase complement factor C1s, chymotrypsin and trypsin. Except for bovine trypsin (Worthington, Lakewood, N.J.), all enzymes used were of human origin. Factor Xa, factor XIa, thrombin, activated protein C and plasmin were from Haematologic Technologies (Essex Junction, Vt.). […]
(§2) The inhibitory activity of KD1 towards a panel of trypsin-like serine proteases was examined using assay conditions as described for measuring the inhibitory activity of HAI-1B ectodomain. […] After 20 min. incubation at room temperature, the appropriate substrate was added and the linear rates of substrate hydrolysis were determined by measuring the change in absorbance at 405 nm on a kinetic microplate reader (Molecular Devices, Sunnyvale, Calif.). […]

Thrombin = biological target: T2, Thrombin (Homo sapiens, UniProt P00734); assay: Chromogenic substrate enzyme inhibition assay, thrombin; format: biochemical; details: substrate S2366, read-out: KD1 IC50
T2 construct: purchased Haematologic Technologies
Description: as §1, §2

IC50 (uPA): > 1000 nM
IC50 (Thrombin): > 1000 nM
Substance: KD1: The first Kunitz domain of human HAI-1B, amino acids 246-303 (SEQ ID NO: 4), with polyhistidine leader, expressed in E. coli
